Source: publication PMC5472695

Target: His-tagged recombinant amelogenin (wild-type) (mouse) (UniProt P63277)
Assay: SDS PAGE with anti-amelogenin Western blot; crude 3% acetic acid E. coli extract and nickel column fractions; non-reducing SDS loading buffer, heated at 90°C for 1.5 min, 12% resolving gel; blot with rabbit anti-amelogenin antibody

stoichiometry N: 2
Substance: His-tagged recombinant amelogenin (wild-type) (from UniProt P63277 17-210) (natural protein)
